# Measurements reported in US10196447B2, “Anti-vascular endothelial growth factor receptor 2 (VEGFR2) antibody and methods of use thereof for detecting VEGFR2 and for inhibiting tumor growth, tumor angiogenesis and/or inducing cancer cell cytotoxicity” (Academia Sinica, priority 2015, dated 2019).
# B1: R2PC8: phage-displayed human scFv clone binding VEGFR2; VH CDR1-3 SEQ ID NO: 1-3, VL CDR1/CDR3 SEQ ID NO: 4, 5 (antibody, V domains shown)
# VH: QVQLVQSGGGLVKPGGSLRLSCAASGFTFSSYSMSWVRQAPGKGLEWVSSISSSSSYIYYADSVKGRFTISRDNAKNSLYLQMNSLRAEDTAVYYCARSTDAFDIWGQGTMVTVSS
# VL: DIVMTQSPSSLSASVGDRVTITCRASQRISNYLNWYQHKSGEDPKLLIYAASSLQSGVPSRFSGSGSGTDFTLTISSLQPEDFATYYCQQYDRYPPTFGQGTKLEIK
# B2: R2PC28: phage-displayed human scFv clone binding VEGFR2; VH CDR1-3 SEQ ID NO: 11-13, VL CDR1/CDR3 SEQ ID NO: 14, 15 (antibody, V domains shown)
# VH: EVQLVESGGALVQPGGSLRLSCVGSEFTFSHYNLHWVRQAPGKGLEWLAVISDDGRNKYYGDSVKGRFTISRDNSKNTLYLQMNGLRAEDTAVYYCARVPTVWRGGVYDIWGQGTMVTVSS
# VL: EIVLTQSPATLSLSPGERATLSCRASQSVGSYLAWYQQRPGQPPRLLIYDASNRATGVAARFSGSGSGTDFTLTIDSLEAEDAATYYCHQSSSLPRTFGQGTKLEIK
# B3: R2PC29: phage-displayed human scFv clone binding VEGFR2; VH CDR1-3 SEQ ID NO: 16-18, VL CDR1/CDR3 SEQ ID NO: 19, 20 (antibody, V domains shown)
# VH: QVQLQQSGAEMKKSGSSVKVSCKASGGNFISKGISWVRQAPGQGLEWMGGIIPLFGTGNYAQKFQGRVTITADESTTTVYLQLTSLTPEDTAMYFCATADVDYSDSLEAFDMWGQGTMVTVSS
# VL: DIVMTQSPSSLSASVGDRVTITCRASQSINNYLNWYQQKPGKAPNLLIYGASSLQSGVPSRFRGSGSGTDFTLTISSLQPEDFATYYCQQSYSTPLFGQGTKLEIK
# B4: R2PC45: phage-displayed human scFv clone binding VEGFR2; VH CDR1-3 SEQ ID NO: 21-23, VL CDR1/CDR3 SEQ ID NO: 24, 25 (antibody, V domains shown)
# VH: QVNLRESGGGVVQPGRSLRLSCAASGFTFSSYAMHWVRQAPGKGLEWVAVISYDGSNKYYADSVKGRFTISRDNSKNTLYLQMNSLRAEDTAVYYCAREQDYGSSSGDAFDIWGQGTMVTVSS
# VL: DIQMTQSPSSLSASVGDRVTITCRASQRISSYLNWYQQKPGKAPKLLIYDASNLQSGVPSRFSGSGSGTDFTLTINGLQPDDFAIYFCHQSYSAPPTFGQGTKVEIK
# B5: R2S8: soluble anti-VEGFR2 scFv protein generated from phage clone R2PC8 (antibody, V domains shown)
# VH: B1 VH
# VL: B1 VL
# B6: R2S12: soluble anti-VEGFR2 scFv protein from phage clone R2PC12; VH SEQ ID NO: 76, VL SEQ ID NO: 77 (antibody, V domains shown)
# VH: QVNLRESGGGLVKPGGSLRLSCAASGFTFGSYTMNWVRQAPGKGLEWVASITSGSSYIFYTDSVKGRFTISRDNSRSSLFLQMNSLRAEDTAIYYCARGSASAFDIWGQGTMVTVSS
# VL: DIQMTQSPSSLSASVGDRVTITCKASDDIINYLNWYQQKPGEAPKLLIYDASILETGVPSRFSGSGSGTDFTFTISSLQPEDIATYYCQQYDILPLTFGGGTKLEIK
# modifications: scFv linker; VH region of R2S12 or R2S12-AF; VL region of R2S12
# B7: R2S28: soluble anti-VEGFR2 scFv protein generated from phage clone R2PC28 (antibody, V domains shown)
# VH: B2 VH
# VL: B2 VL
# B8: R2S29: soluble anti-VEGFR2 scFv protein generated from phage clone R2PC29 (antibody, V domains shown)
# VH: B3 VH
# VL: B3 VL
# Experiments:
# PC-3 xenografts = assay: PC-3 human prostate cancer xenograft model; assay type: in vivo, NOD/SCID mice
# Procedure: Procedures involving animals and their care were conducted according to the guidelines of the Academia Sinica Institutional Animal Care and Utilization Committee in compliance with national and international laws and policies. Non-obese diabetic-severe combined immunodeficiency (NOD/SCID) mice were purchased from the National Laboratory Animal Center (Taiwan). The human prostate cancer xenograft tumor model was developed by subcutaneously injecting 2×10^6 PC-3 cells into the dorsal flank of a six-week old male mouse. Animals were monitored daily for general health, and body weights were measured twice weekly. Tumor size was measured with slide calipers and calculated as length×width^2×0.52. […] An antibody dose of 20 mg/kg was injected twice a week for four weeks. For combination therapy, docetaxel (ScinoPharm Taiwan) was also intravenously administered at a dose of 5 mg/kg once a week for three weeks. At the end of the experiment, tumor tissue and visceral organs were removed and fixed for histological analysis.
# For tumor blood vessel studies, samples were fixed in OCT. Frozen blocks were cut into 50 μm sections, and frozen tumor tissue sections were fixed with 1% paraformaldehyde, permeabilized with 0.1% TRITON™-X 100, blocked with normal horse serum (Vector), and then incubated for 1 hour at room temperature (RT) with a 1:100 dilution of the primary antibody (rat anti-mouse CD31 (PECAM-1); BD Bioscience). Subsequently, the tissue sections were incubated with Alexa 549-conjugated goat anti-rat antibody (Invitrogen) at room temperature for 1 hour. Nuclei were stained with DAPI, and sections were then mounted with fluorescent mounting solution. Immunofluorescent images were acquired using a Zeiss Axiovert 200M microscope. Positive areas of CD31 endothelial cells were quantified by pixel area counting and normalized with DAPI staining using ImageJ software under low power magnification.
# The frozen tumor tissue sections were fixed with 1% paratbrmaldehyde and permeabilized with 0.1% TRITON™-X 100, before being incubated with terminal deoxynucleotidyltransferase-mediated dUTP nick end labeling reaction mixture (Roche Diagnostics) at 37° C. for 1 hour. After washing three times with PBS, the slides were incubated with FITC-anti-DIG antibody (1:2000) and DAPI (1:500). Slides were mounted with mounting solution and visualized under a fluorescent microscope. Slides were independently examined by three individuals. Areas with TUNEL-positive cells were quantified by pixel area counting, and normalized to DAPI staining using ImageJ software.
# Met-Fc = assay: Phage clone ELISA on control protein; assay type: binding
# Procedure: (§1) The selected phages were further examined by ELISA screening. The 96-well plates were coated with 1 μg/ml of VEGFR2-Fc, Met-Fc (R&D), or BSA (Sigma) protein in 0.1 M sodium bicarbonate overnight at 4° C. After blocking with 1% BSA in PBS (w/v) for 2 hr at room temperature, 70-randomly selected phage clones were added to the plates at a 1:2 dilution in 1% BSA, and incubated for 1 hr at room temperature. Following washes with PBST, the plates were incubated with a 1:2000 dilution of horseradish peroxidase (HRP)-conjugated mouse anti-M13 phage antibody (GE) for 1 hr. After washing with PBST, the colorimetric reaction was developed with the peroxidase substrate ortho-phenylenediamine (OPD; Sigma) plus H2O2 for 15 min, and then terminated by the addition of 3 N HCl. The absorbance at 490 nm was determined using a microplate reader (SpectraMax, Molecular Devices). Plasmid DNA of positive clones were isolated and sequenced using the pCANTAB5 sequencing primer set.
# VEGFR2-Fc = biological target: T1, VEGFR2-Fc (Homo sapiens, UniProt P35968); assay: Screening of anti-VEGFR2 phage clones by ELISA; assay type: binding; details: 1×10^9 cfu phage titer
# T1 construct: purchased R&D Systems
# Procedure: as §1
# murine VEGFR2 protein = murine VEGFR2 protein (Mus musculus, UniProt P35918, DEL223-227); assay: Cross-reactivity with murine VEGFR2; assay type: binding
# VEGFR2 signaling pathway = assay: Western blot of VEGF-A-induced phosphorylation in HUVECs; assay type: cell-based, human; details: scFv
# Excerpt: Western blots were pertbrmed using standard protocols, as previously described. The primary antibodies were purchased from Cell Signaling Technology and used at a 1,000-fold dilution for protein detection; the antibodies used are as follows: anti-VEGFR2 (clone 55B11), anti-phospho-VEGFR2 (Tyr1175; clone 19A10), anti-FAK, anti-phospho-FAK (Tyr397; cloneD20B1), anti-p42/44 MAPK, anti-phospho-p42/44 MAPK (Thr202/Tyr204; cloneD13.14.4E), anti-Akt, and anti-phospho-Akt (Ser473).
# VEGFR2 = biological target: T2, VEGFR2 (Homo sapiens, UniProt P35968); assay: Competitive VEGF binding assay (ELISA): VEGF-A binding to immobilized VEGFR2; details: scFv; for IC50: 3 nM human VEGF-A, immobilized VEGFR2-Fc, read-out: half-maximal inhibitory concentration (IC50) of the interaction of VEGF-A with VEGFR2; for competitive ability against VEGF-A binding to VEGFR2: plate-based competition binding assay
# T2 construct: purchased R&D Systems
# Procedure: Various concentrations of anti-VEGFR2 scFvs were mixed with 3 nM human VEGF-A (Peprotech), and added to 96-well plates coated with 1 μg/ml of VEGFR2-Fc and pre-blocked in 1% BSA. After incubation for 1 hr at RT and washes with PBST, the bound VEGF molecules were detected using anti-VEGF mAb (GeneTex) and HRP-labeled goat anti-mouse IgG. The reaction was developed with a mixture of OPD and H2O2, and subsequently terminated with 3 N HCl. The absorbance was determined using a microplate reader at 490 nm.
# To determine whether the anti-VEGFR2 scFvs can block VEGF-A binding to VEGFR2, we performed a plate-based competition binding assay in which increasing concentrations of scFvs competed with VEGF-A for binding to the immobilized VEGFR2.
# We analyzed the affinity of both human antibodies to VEGFR2 using a BIACORE T100™. […] We performed solid-phase competitive assays to quantitatively evaluate the disruption of VEGF-A/VEGFR2 binding by individual antibodies.
# T2 sequence (P35968 with tags, fused parts or gaps limits assumed): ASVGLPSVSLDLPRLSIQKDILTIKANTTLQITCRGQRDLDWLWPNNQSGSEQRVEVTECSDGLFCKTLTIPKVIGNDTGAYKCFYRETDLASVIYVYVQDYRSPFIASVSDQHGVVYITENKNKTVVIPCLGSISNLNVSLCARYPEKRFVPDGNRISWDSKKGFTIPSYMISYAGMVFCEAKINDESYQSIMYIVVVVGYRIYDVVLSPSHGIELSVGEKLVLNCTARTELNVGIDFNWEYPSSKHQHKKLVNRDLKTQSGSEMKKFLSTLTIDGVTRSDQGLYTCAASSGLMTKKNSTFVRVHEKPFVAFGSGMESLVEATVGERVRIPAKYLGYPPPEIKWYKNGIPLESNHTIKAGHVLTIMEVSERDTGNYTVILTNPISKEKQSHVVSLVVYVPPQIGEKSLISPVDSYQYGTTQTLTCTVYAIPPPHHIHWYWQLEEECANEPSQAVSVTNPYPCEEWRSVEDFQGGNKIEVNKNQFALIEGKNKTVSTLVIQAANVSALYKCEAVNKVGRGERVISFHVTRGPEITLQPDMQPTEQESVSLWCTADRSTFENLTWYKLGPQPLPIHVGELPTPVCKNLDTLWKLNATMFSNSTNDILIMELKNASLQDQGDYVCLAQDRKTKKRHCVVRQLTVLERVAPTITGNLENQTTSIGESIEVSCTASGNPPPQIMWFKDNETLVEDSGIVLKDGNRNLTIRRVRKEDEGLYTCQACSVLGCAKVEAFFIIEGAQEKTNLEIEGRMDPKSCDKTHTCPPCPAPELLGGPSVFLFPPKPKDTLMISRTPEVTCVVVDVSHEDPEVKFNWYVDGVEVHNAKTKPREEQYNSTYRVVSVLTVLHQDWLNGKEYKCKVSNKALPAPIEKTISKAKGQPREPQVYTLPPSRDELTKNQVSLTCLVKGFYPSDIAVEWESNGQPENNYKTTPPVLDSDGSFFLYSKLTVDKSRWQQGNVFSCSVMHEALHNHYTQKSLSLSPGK
# T1 sequence (P35968 with tags, fused parts or gaps limits assumed): as above
# murine VEGFR2 protein, sequence (P35918 with tags, fused parts or gaps DEL223-227): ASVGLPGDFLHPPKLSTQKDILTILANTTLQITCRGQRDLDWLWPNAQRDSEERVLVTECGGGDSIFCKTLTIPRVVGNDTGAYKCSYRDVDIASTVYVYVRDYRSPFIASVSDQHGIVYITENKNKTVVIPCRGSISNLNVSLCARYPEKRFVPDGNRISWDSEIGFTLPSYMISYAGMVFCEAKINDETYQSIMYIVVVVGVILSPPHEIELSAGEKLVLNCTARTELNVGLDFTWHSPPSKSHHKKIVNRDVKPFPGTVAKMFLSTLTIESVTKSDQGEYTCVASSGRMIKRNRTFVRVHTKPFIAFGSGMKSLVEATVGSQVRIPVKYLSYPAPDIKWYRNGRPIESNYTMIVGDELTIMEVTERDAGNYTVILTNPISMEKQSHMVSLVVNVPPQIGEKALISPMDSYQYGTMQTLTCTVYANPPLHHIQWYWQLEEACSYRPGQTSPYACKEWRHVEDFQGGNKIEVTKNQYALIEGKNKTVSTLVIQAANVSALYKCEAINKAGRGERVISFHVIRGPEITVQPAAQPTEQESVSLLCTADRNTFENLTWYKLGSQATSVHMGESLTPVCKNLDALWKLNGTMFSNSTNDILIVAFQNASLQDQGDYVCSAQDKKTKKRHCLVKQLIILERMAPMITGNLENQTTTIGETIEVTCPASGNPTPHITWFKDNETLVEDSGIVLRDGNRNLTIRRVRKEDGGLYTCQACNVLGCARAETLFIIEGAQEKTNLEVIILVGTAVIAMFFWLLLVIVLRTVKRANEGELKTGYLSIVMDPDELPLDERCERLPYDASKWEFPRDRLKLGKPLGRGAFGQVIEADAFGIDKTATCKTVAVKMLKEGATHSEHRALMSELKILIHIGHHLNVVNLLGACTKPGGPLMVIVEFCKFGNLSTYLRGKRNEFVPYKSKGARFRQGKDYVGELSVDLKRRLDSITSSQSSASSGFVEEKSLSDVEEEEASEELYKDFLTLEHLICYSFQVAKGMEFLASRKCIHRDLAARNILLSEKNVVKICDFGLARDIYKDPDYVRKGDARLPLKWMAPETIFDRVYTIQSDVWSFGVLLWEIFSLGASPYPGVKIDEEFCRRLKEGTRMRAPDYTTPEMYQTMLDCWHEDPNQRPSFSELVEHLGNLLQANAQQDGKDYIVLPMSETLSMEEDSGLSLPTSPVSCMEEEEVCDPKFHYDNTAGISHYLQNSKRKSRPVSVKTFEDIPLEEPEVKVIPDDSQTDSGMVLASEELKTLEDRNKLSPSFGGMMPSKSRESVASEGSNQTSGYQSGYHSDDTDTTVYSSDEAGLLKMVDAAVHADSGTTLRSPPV
molecule,measurement,setting,value
"CC(=O)O[C@@]12CO[C@@H]1C[C@H](O)[C@@]1(C)C(=O)[C@H](O)C3=C(C)[C@@H](OC(=O)[C@H](O)[C@@H](NC(=O)OC(C)(C)C)c4ccccc4)C[C@@](O)([C@@H](OC(=O)c4ccccc4)[C@H]21)C3(C)C [docetaxel, reference compound]",tumor growth reduction,"PC-3 xenografts; by day 38, antibody 20 mg/kg i.v. twice a week, docetaxel 5 mg/kg i.v. once a week",70%
same,loss of body weight,PC-3 xenografts; treatment period,about 20%
B1,binding of phage clones to c-Met-Fc control protein,Met-Fc,not
same,binding of phage clones to VEGFR2-Fc,VEGFR2-Fc,bind highly
B2,binding of phage clones to c-Met-Fc control protein,Met-Fc,not
same,binding of phage clones to VEGFR2-Fc,VEGFR2-Fc,bind highly
B3,binding of phage clones to c-Met-Fc control protein,Met-Fc,not
same,binding of phage clones to VEGFR2-Fc,VEGFR2-Fc,bind highly
B4,binding of phage clones to c-Met-Fc control protein,Met-Fc,not
same,binding of phage clones to VEGFR2-Fc,VEGFR2-Fc,bind highly
B5,cross-reaction / binding to murine VEGFR2,murine VEGFR2 protein,did not cross-react
same,tyrosine phosphorylation of VEGFR2 by VEGF-A,VEGFR2 signaling pathway,inhibited
same,IC50,VEGFR2,7.03 nM
B6,cross-reaction / binding to murine VEGFR2,murine VEGFR2 protein,did not cross-react
same,tyrosine phosphorylation of VEGFR2 by VEGF-A,VEGFR2 signaling pathway,strongest inhibition activity
same,IC50,VEGFR2,3.26 nM
B7,competitive ability against VEGF-A binding to VEGFR2,VEGFR2,comparatively weak competitive ability
B8,competitive ability against VEGF-A binding to VEGFR2,VEGFR2,comparatively weak competitive ability
